In US20240101675A1 (BIOLOJIC DESIGN, published 2024):
Read-outs that look alike come from different tables or passages of the source. Values belong to the binder of their own block, whether it stands above or below them.

What was measured:
recombinant human IL-13 = biological target: T1, recombinant human IL-13 (human, UniProt P35225 35-146); experiment: SPR, IgG captured, hIL-13 as analyte, steady state
T1 construct: also called rh-IL-13; rhIL-13
Procedure: Subsequent to a cycle, the analyte and tested antibody were stripped from the chip and new tested Ab was loaded on the chip as described above. KD was determined at a steady state condition.

human TSLP = biological target: T2, human TSLP (human, UniProt Q969D9 29-159); experiment: SPR (ProteOn XPR36), IgG captured, hTSLP as analyte 3.2 to 0.2 nM
T2 construct: also called hTSLP; h-TSLP

[1] = biological target: T3, recombinant human PD-1 tagged with histidine tag (hPD-1-His) (human, UniProt Q15116 25-167, limits assumed); experiment: yeast surface display flow cytometry: scFv on yeast, 111 nM hPD-1-His, anti-His-APC; median RFU
T3 construct: bought (Reprokine); not shown: histidine tag

[2] = biological target: T3, recombinant human PD-1 tagged with …; experiment: yeast surface display flow cytometry: scFv on yeast, 30 nM hPD-1-His, anti-His-APC; median RFU
[3] = biological target: T4, recombinant human OX40 tagged with histidine tag (hOX40-His) (human, UniProt P43489 29-216); experiment: yeast surface display flow cytometry: scFv on yeast, 90 nM hOX40-His, anti-His-APC; median RFU
T4 construct: bought (Reprokine); also called hOX-His; not shown: histidine tag
T4 sequence (looked up): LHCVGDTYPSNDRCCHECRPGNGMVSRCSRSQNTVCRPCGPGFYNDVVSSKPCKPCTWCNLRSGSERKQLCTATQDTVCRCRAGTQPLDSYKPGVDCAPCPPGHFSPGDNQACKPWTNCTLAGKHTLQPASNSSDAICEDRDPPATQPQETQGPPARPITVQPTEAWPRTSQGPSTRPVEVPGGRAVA

[4] = biological target: T5, recombinant human GITR tagged with histidine tag (hGITR-His) (human, UniProt Q9Y5U5 26-161, limits assumed); experiment: direct ELISA, antibody coated, hGITR-His titrated 0 to 865 nM
T5 construct: bought (Reprokine); not shown: histidine tag
T5 sequence (looked up): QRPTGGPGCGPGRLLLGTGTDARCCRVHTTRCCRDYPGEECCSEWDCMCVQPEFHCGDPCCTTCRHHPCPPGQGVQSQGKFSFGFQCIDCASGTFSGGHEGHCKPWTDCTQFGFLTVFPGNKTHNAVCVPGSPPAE

[5] = biological target: T3, recombinant human PD-1 tagged with …; experiment: direct ELISA: antibody coated on the plate, hPD-1-His titrated, anti-His-HRP
Procedure: (§1) IgG binding affinity was examined by ELISA experiments. ELISA plates (Greiner Bio-One-high binding) were coated with 50 ul (100 ng) of the tested antibody and incubated for 1 hour at room temperature. Then plates were washed three times with 300 μl PBS buffer containing 0.05% Tween 20 (PBS-T), blocked with 300μ PBS-T supplemented with 1% to 3% BSA, and incubated for 1 hour at room temperature (RT). Antibodies-coated plates were then washed three times with 300 μl PBS-T and incubated with serial dilutions of test ligand either hPD-1-His, or hOX40-His, or hGITR-His (Reprokine, Israel) in a final volume of 50 ul for 1-3 hours. Plates were then washed three times with 300 μl PBS-T and incubated with 50 μl anti-HIS-HRP conjugate that was diluted 1:300 in PBS (Santa Cruz Biotechnology, USA). After an additional wash step, the reaction was developed with 50 ul tetrametylbenzidine (TMB) reagent (Southern biotech, USA), and stopped with 50 ul 0.5N H₂SO₄. […] The binding affinity was determined by fitting the data to a specific binding non-linear regression model on Prisma 8 GraphPad software.

[6] = biological target: T5, recombinant human GITR tagged with …; experiment: yeast surface display scFv, flow cytometry
Procedure: (§2) The library was screened on BioRad S3e Fluorescence Activated Cell Sorter (FACS) for high affinity binders of recombinant h-GITR-His, or recombinant h-PD1-His, or recombinant h-OX40-His (Reprokine) using mouse anti Myc-FITC (Santa Cruze, USA) and goat anti-His-APC (Miltenyi Biotec, Germany) for fluorescence labeling. […] The chosen clones were incubated for 1 hour at room temperature with recombinant h-GITR-His, or hPD1-His, or hOX40-His, at the concentrations described in the example section. Cells were washed and resuspended in ice-cold PBS 0.1% BSA buffer containing a fluorescent labeled secondary antibody as described above for 20 min and analyzed using a flow cytometer. The values obtained were normalized to expression levels.

[7] = biological target: T3, recombinant human PD-1 tagged with …; experiment: yeast surface display scFv, flow cytometry, 250 nM hPD-1-His
Procedure: as §2

[8] = biological target: T6, PD-1 on engineered Jurkat effector cells (PD-1/PD-L1 Blockade Bioassay) (UniProt Q15116 25-288, limits assumed); experiment: cell-based or functional assay
[9] = biological target: T5, recombinant human GITR tagged with …; experiment: direct ELISA: antibody coated on the plate, hGITR-His titrated, anti-His-HRP
Procedure: as §1

[10] = biological target: T3, recombinant human PD-1 tagged with …; experiment: yeast surface display scFv, flow cytometry
Procedure: as §2

[11] = biological target: T6, PD-1 on engineered Jurkat effector …; experiment: cell-based or functional assay; remark: listed apart in the source
[12] = biological target: T4, recombinant human OX40 tagged with …; experiment: direct ELISA, antibody coated, hOX40-His titrated 0 to 500 nM
Procedure: as §1

[13] = biological target: T4, recombinant human OX40 tagged with …; experiment: direct ELISA: antibody coated on the plate, hOX40-His titrated, anti-His-HRP
Procedure: as §1

[14] = biological target: T3, recombinant human PD-1 tagged with …; experiment: direct ELISA: antibody coated on the plate, hPD-1-His titrated, anti-His-HRP; remark: listed apart in the source
Procedure: as §1

T1 sequence (P35225 35-146 limits assumed): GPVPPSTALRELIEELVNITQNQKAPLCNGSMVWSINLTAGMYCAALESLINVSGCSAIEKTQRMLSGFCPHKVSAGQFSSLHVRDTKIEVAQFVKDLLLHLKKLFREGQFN

B1: BDG33.004 (antibody, human IgG1, V domains shown)
VH: QMQLVESGGGVVQPGRSLRLSCAASGFTFRTYGMHWVRQAPGKGLEWVAVIWYDGSNKHYADSVKGRFTITRDNSKNTLNLQMNSLRAEDTAVYYCARAPQWMLVAEAFDLWGQGTMVTVSS
VL: SYVLTQPPSVSVAPGQTARITCGGNLIGSKLVHWYQQKPGQAPVLVVYDDSDRPSRIPERFSGSNSGNTATLTISRVEAGDEADYYCQVWDSSSDHVVFGGGTKLTVL
notes: human IgG1; also called BGD33.004; Clone C6 as IgG1
Kd (recombinant human IL-13): 57.4 nM | Kd (human TSLP): 3.33 nM | koff (human TSLP): 0.00114 s⁻¹ | kon (human TSLP): 344000 M⁻¹ s⁻¹

B3: G2 (GITR Library) (scFv, V domains shown)
VH: QVQLVESGGGVVQPGRSLRLDCKASGITFSNSGMHWVRQAPGKGLEWVAVIWYDGSLRYYADSVKGRFTISRDNSKNTLFLQMNSLRAEDTAVYYCATNDDYWGQGTLVTVSS
VL: EIVLTQSPATLSLSPGERATLSCRASQSVSDNLAWYQQKPGQAPRLLIYDADNRATGIPARFSGSGSGTDFTLTISSLEPEDFAVYYCQQSSNLPRTFGQGTKVEIK
notes: also called Clone G2; not shown: linker
binding result [1]: binds

B4: 1B_seq96_13753_B01_4279975 (OX40 Library) (scFv, V domains shown)
VH: QVQLVESGGGVVQPGRSLRLDCKASGITFSNSGMHWVRQAPGKGLEWVAVIWYDGSKRYYADSVKGRFTISRDNSKNTLFLQMNSLRAEDTAVYYCATNDDYWGQGTLVTVSS
VL: EIVLTQSPATLSLSPGERATLSCRASQSVIHYLAWYQQKPGQAPRLLIYDASNRATGIPARFSGSGSGTDFTLTISSLEPEDFAVYYCQQYSNWPLTFGQGTKVEIK
notes: not shown: linker
binding result [2]: binds | binding result [3]: binds

B5: BDG32.004 (antibody, human IgG1, V domains shown)
VH: QVQLVESGGGVVQPGRSLRLDCKASGFTFSNSGMHWVRQAPGKGLEWVAVIWYDGSLRYYADSVKGRFTISRDNSKNTLFLQMNSLRAEDTAVYYCATNDDYWGQGTLVTVSS
VL: EIVLTQSPATLSLSPGERATLSCRASQSVSDNLQWYQQKPGQAPRLLIYDADTRATGIPARFSGSGSGTDFTLTISSLEPEDFAVYYCQQSSNLPRTFGQGTKVEIK
EC50 [4]: ~13 nM | EC50 (read off the curve) [5]: ~2 nM

B7: BDG32.005 (antibody, human IgG1, V domains shown)
VH: QVQLVESGGGVVQPGRSLRLDCKASGITFSNSGMHWVRQAPGKGLEWVAVIWYDGSLRYYADSVKGRFTISRDNSKNTLFLQMNSLRAEDTAVYYCATNDDYWGQGTLVTVSS
VL: EIVLTQSPATLSLSPGERATLSCRASQSVSDNLAWYQQKPGQAPRLLIYDADNRATGIPARFSGSGSGTDFTLTISSLEPEDFAVYYCMQSSNLARTFGQGTKVEIK
notes: human IgG1 format
IC50, cellular reporter PD1/PDL1 blocking assay (PD-1 dependent luminescence) [8]: ~614 nM | EC50 [4]: ~4 nM | EC50 (read off the curve) [9]: ~4 nM | EC50 (read off the curve) [5]: ~3 nM

B10: BDG32.007 (antibody, human IgG1, V domains shown)
VH: QVQLVESGGGVVQPGRSLRLDCKASGITFSNSGMHWVRQAPGKGLEWVAVIWYDGSKTYYADSVKGRFTISRDNSKNTLFLQMNSLRAEDTAVYYCATNDDYWGQGTLVTVSS
VL: EIVLTQSPATLSLSPGERATLSCRASQSVEHYLAWYQQKPGQAPRLLIYDAGNRATGIPARFSGSGSGTDFTLTISSLEPEDFAVYYCQQYSDWPLTFGQGTKVEIK
notes: human IgG1 format of clone 3212ACOXC5A
IC50, cellular reporter PD1/PDL1 blocking assay (PD-1 dependent luminescence) [8]: ~2.5 nM | IC50 (read off the curve); PD-1/PD-L1 Blockade Bioassay, luciferase RLU [11]: ~2 nM | EC50 [12]: ~26 nM | EC50 (read off the curve) [13]: ~30 nM | EC50 (read off the curve) [14]: ~0.6 nM

More lines, now with the values ahead:

Kd (recombinant human IL-13): 21.6 nM | Kd (human TSLP): 4.5 nM | koff (human TSLP): 0.00129 s⁻¹ | kon (human TSLP): 287000 M⁻¹ s⁻¹
B2: BDG33.003 (antibody, human IgG1, V domains shown)
VH: QMQLVESGGGVVQPGRSLRLSCAASGFTFRTYGMHWVRQAPGKGLEWVAVIWYDGSNKHYADSVKGRFTITRDNSKNTLNLQMNSLRAEDTAVYYCARAPQWELTAEAFDIWGQGTMVTVSS
VL: SYVLTQPPSVSVAPGQTARITCGGNLIGSKLVHWYQQKPGQAPVLVVYDDSDRPSLIPERFSGSNSGNTATLTISRVEAGDEADYYCQVWDSSSDGVVFGGGTKLTVL
notes: also called BGD33.003; Clone C2 as IgG1

binding result [6]: binds | binding result [7]: binds
B6: G1 (GITR Library) (scFv, V domains shown)
VH: QAQLVESGGGVVQAGRSLRLDCKASGITFSNRGMHWVRQAPGKGLEWVAVIWYDGSLRYYADSVKGRFTISRDNSKNTLFLQMNSLRAEDTAVYYCATNDDYWGQGTLVTVSS
VL: EIVLTQSPATLSLSPGERATLSCRASQSVSDNLAWYQQKPGQAPRLLIYDADNRATGIPARFSGSGSGTDFTLTISSLEPEDFAVYYCQQSSNLPRTFGQGTKVEIK
notes: not shown: linker

binding result [10]: binds | binding result [6]: binds
B8: G5 (GITR Library) (scFv, V domains shown)
VH: QVQLVESGGGVVHPGRSLRVDCKASGITFSNSGMHWVRQAPGKGLEWVAVIWYDGSLRYYADSVKGRFTISRDNSKNTLFLQMNSLRAEDTAVYYCATNDDYWGQGTLVTVSS
VL: EIVLTQSPATLSLSPGERATLSCRASQSVSDNLAWYQQKPGQAPRLLIYDADNRATGIPARFSGSGSGTDFTLTISSLAPEDFAVYYCQQSSNLPRTFGQGTKVEIK
notes: not shown: linker

binding result [10]: binds | binding result [6]: binds
B9: G8 (GITR Library) (scFv, V domains shown)
VH: QVQLVESGGGVVQPGRSLRLDCKASGITFSNSGMHWVRQAPGKGLEWVAVIWYDGSLRYYADSVKGRFTISRDNSKNTLFLQMNSLRAEDTAVYYCASNDDYWGQGTLVTVSS
VL: EIVLTQSPATLSLSPGERATLSCRASQSVSDNLAWYQQKPGQAPRLLIYDADNRATGIPARFSGSGSGTDFTLTISSLEPEDFAVYYCQQSSNLPRTFGQGTKVEIK
notes: not shown: linker

EC50 [12]: ~24 nM | EC50 (read off the curve) [13]: ~20 nM | EC50 (read off the curve) [14]: ~0.9 nM
B11: BDG32.008 (antibody, human IgG1, V domains shown)
VH: QVQLVESGGGVVQPGRSLRLDCKASGIDFSNSGMHWVRQAPGKGLEWVAVIWYDGSLRYYADSVKGRFTISRDNSKNTLFLQMNSLRAEDTAVYYCATNDDYWGQGTLVTVSS
VL: EIVLTQSPATLSLSPGERATLSCRASQSVEHYLAWYQQKPGQAPRLLVYDASNRATGIPARFSGSGSGTDFTLTISSLEPEDFAVYYCQQYSNWPLTFGQGTKVEIK
notes: human IgG1 format of clone 3212ACOXC7A

binding result [2]: binds | binding result [3]: binds
B12: 3212ACOXC23 (OX40 library) (scFv, V domains shown)
VH: QVQLVESGGGVVQPGRSLRLDCKASGIDFSNSGMHWVRQAPGKGLEWLAVIWYDGSKRYYADSVKGRFTISRDNSKNTLFLQMNSLRAEDTAVYYCASNDDYWGQGTLVTVSS
VL: EIVLTQSPATLSLSPGERATLSCRASQSVIHYLAWYQQKPGQAPRLLIYDASNRATGIPARFSGSGSGTDFTLTISSLEPEDFAVYYCQQYENWPLTFGQGTKVEIK
notes: not shown: linker

binding result [2]: binds | binding result [3]: binds
B13: 3212ACOXC61 (OX40 library) (scFv, V domains shown)
VH: QVQLVESGGGVVQPGRSLRLDCKASGIAFSNSGMHWVRQAPGKGLEWVAVIWYDGSKTYYADSVKGRFTISRDNSKNTLFLQMNSLRAEDTAVYYCATNDDYWGQGTLVTVSS
VL: EIVLTQSPATLSLSPGERATLSCRASQSVIHYLAWYQQKPGQAPRLLIYDASNRATGIPARFSGSGSGTDFTLTISSLEPEDFAVYYCQQYTNWPLTFGQGTKVEIK
notes: not shown: linker
